From patent US20240270821A1, “GIP/GLP1/GCG TRI-RECEPTOR AGONISTS AND USES THEREOF” (priority 2023, published 2024)
Starred links: 1 amine or outer side, 2 acyl side, 3 side chain; linkers in the order of their positions; H or OH if unused. Non-standard residues stand in square brackets, D forms with d. Groups on a side chain read outwards from the residue. No end group written: not given here. *: point of attachment. C20 diacid = O=C(O)CCCCCCCCCCCCCCCCCCC(=O)*; αMePhe(2-F) = C[C@](N)(Cc1ccccc1F)C(=O)O; γGlu = O=C(O)[C@H](CCC(=O)[*:2])N[*:1]; αMeL = CC(C)C[C@](C)(N)C(=O)O; Orn = NCCC[C@H](N)C(=O)O; AEEA = NCCOCCOCC(=O)O; Aib = CC(C)(N)C(=O)O

T1: human GIP receptor (human) (UniProt P48546)
T1 sequence (looked up): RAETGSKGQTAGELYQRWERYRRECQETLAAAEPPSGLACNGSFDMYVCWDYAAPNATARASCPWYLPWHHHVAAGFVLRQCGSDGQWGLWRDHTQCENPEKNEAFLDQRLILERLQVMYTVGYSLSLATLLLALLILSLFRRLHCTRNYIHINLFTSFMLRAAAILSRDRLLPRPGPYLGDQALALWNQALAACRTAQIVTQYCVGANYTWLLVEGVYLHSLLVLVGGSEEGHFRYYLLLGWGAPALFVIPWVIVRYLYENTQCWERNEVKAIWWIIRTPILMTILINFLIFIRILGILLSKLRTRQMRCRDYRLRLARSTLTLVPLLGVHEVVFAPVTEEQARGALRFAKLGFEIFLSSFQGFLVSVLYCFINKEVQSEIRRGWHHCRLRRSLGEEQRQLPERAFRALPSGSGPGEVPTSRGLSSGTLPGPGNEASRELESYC

B1: Example 314 (peptide)
chain: Y[Aib]QGTFTSDYSK[αMeL]LDKK([AEEA-γGlu-C20 diacid])AQQAFIQWLIEGGPSSGEPPPSEG-NH2
B2: Example 310 (peptide)
chain: Y[Aib]QGT[αMePhe(2-F)]TSDYSKLLDKIAQK[Orn]FIEWLIEGGPSSGEPPPSEG-NH2
modifications: not fully specified (residue 20); ends and bridges not checked
B3: Example 326 (peptide)
chain: Y[Aib]QGTFTSDYSI[αMeL]LDKQAAK([AEEA-AEEA-γGlu-C20 diacid])QFVEWLIA[Aib]GPSSGEPPPSEG-NH2
B4: Example 306 (peptide)
chain: Y[Aib]QGT[αMePhe(2-F)]TSDYSILLDKAAQK[Orn]FIEYLIEGGPSSGEPPPSEG-NH2
modifications: not fully specified (residue 20)
B5: Example 317 (peptide)
chain: Y[Aib]QGTFTSDYSI[αMeL]LDKQAAK([AEEA-AEEA-γGlu-C20 diacid])AFVEWLLA[Aib]GPSSGEPPPSEG-NH2
B6: Example 320 (peptide)
chain: Y[Aib]QGTFTSDYSI[αMeL]LDKQAAK([AEEA-AEEA-γGlu-C20 diacid])QFVEWLLAGGPSSGEPPPGEG-NH2
B7: Example 328 (peptide)
chain: Y[Aib]QGTFTSDYSI[αMeL]LD[Orn]QAAK([AEEA-AEEA-γGlu-C20 diacid])QFVEWLLA[Aib]GPSSGEPPPSEG-NH2
B8: Example 327 (peptide)
chain: Y[Aib]QGTFTSDYSI[αMeL]LDKQAAK([AEEA-AEEA-γGlu-C20 diacid])QFVEWLLA[Aib]GPSSGAPPPSEG-NH2
B9: Example 650 (SEQ ID NO: 656) (peptide)
chain: YXQGTXTSDXSIXLDKKAQXXFIEYLAEGGPSSGEPPPEGSEE
modifications: synthetic construct; SITE 2: note = 2-Aminoisobutyric Acid; SITE 6: note = alpha-methyl-2-fluoro-L-phenylalanine; SITE 10: note = 3-(4-Pyridyl)-L-alanine; SITE 13: note = alpha-methyl-leucine; SITE 17: note = Lysine is chemically modified through conjugation of the epsilon-amino group of the Lysine
B10: Example 652 (SEQ ID NO: 658) (peptide)
chain: YXQGTXTSDXSIXLDKKAQXXFIEYLTEGGPSSGEPPPEGSEE
modifications: synthetic construct; SITE 2: note = 2-Aminoisobutyric Acid; SITE 6: note = alpha-methyl-2-fluoro-L-phenylalanine; SITE 10: note = 3-(4-Pyridyl)-L-alanine; SITE 13: note = alpha-methyl-leucine; SITE 17: note = Lysine is chemically modified through conjugation of the epsilon-amino group of the Lysine
B11: Example 653 (SEQ ID NO: 659) (peptide)
chain: YXQGTXTSDXSIXLDKKAQXXFIEYLQEGGPSSGEPPPEGSEE
modifications: synthetic construct; SITE 2: note = 2-Aminoisobutyric Acid; SITE 6: note = alpha-methyl-2-fluoro-L-phenylalanine; SITE 10: note = 3-(4-Pyridyl)-L-alanine; SITE 13: note = alpha-methyl-leucine; SITE 17: note = Lysine is chemically modified through conjugation of the epsilon-amino group of the Lysine
B12: Example 651 (SEQ ID NO: 657) (peptide)
chain: YXQGTXTSDXSIXLDKKAQXXFIEYLSEGGPSSGEPPPEGSEE
modifications: synthetic construct; SITE 2: note = 2-Aminoisobutyric Acid; SITE 6: note = alpha-methyl-2-fluoro-L-phenylalanine; SITE 10: note = 3-(4-Pyridyl)-L-alanine; SITE 13: note = alpha-methyl-leucine; SITE 17: note = Lysine is chemically modified through conjugation of the epsilon-amino group of the Lysine
B13: Example 324 (peptide)
chain: Y[Aib]QGTFTSDYSI[αMeL]LDKIAAK([AEEA-AEEA-γGlu-C20 diacid])QFVEWLLA[Aib]GPSSGEPPPSEG-NH2
B14: Example 322 (peptide)
chain: Y[Aib]QGTFTSDYSK[αMeL]LDKK([AEEA-γGlu-C20 diacid])AQQAFIEYLIAGGPSSGAPPPSSE-NH2

Key:
Assay in all cases: cell-based or functional assay
hGLP-1R = hGLP-1R (Homo sapiens, UniProt P43220)
Sequence of hGLP-1R (P43220 24-463): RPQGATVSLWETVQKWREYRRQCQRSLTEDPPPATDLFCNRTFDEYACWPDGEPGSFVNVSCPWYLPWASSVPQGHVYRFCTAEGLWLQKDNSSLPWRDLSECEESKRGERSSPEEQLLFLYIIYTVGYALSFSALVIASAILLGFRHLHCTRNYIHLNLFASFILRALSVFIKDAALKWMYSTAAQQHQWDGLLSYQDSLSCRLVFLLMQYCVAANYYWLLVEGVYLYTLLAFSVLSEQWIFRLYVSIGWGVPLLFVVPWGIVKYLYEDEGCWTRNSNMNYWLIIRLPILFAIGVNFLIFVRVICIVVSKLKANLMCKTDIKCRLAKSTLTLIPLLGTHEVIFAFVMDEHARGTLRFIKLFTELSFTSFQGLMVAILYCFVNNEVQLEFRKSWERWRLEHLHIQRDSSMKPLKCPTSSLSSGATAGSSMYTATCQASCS

[1] = biological target: T1, human GIP receptor (human)
[2] = biological target: human glucagon receptor (human) (UniProt P47871)
Sequence of human glucagon receptor (human) (P47871 26-477): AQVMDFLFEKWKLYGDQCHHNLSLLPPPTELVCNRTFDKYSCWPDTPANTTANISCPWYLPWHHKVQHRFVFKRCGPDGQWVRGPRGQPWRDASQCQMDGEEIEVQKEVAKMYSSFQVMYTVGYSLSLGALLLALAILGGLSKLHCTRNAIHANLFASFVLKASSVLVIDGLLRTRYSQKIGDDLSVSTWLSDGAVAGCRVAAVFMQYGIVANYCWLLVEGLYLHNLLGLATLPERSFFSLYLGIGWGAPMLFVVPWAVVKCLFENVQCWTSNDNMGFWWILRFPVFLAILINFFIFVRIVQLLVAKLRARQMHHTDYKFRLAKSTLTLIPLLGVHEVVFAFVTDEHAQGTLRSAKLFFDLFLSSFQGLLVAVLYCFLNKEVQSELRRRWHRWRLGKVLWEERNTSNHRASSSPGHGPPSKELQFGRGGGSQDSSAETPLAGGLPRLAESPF

Row | Binder | Relative cAMP EC50 (hGLP-1R) [nM] | cAMP Rel EC50 (1% HSA) (hGLP-1R) [nM] | Relative cAMP EC50 [1] [nM] | cAMP Rel EC50 (1% HSA) [1] [nM] | Relative cAMP EC50 [2] [nM] | cAMP Rel EC50 (1% HSA) [2] [nM]
1 | B1 | 0.274 | 100 | 0.345 | 65.9 | 3.7 | 1030
2 | B2 | 0.586 | 177 | 0.0939 | 15 | 3.52 | 4000
3 | B3 | 0.555 | 172 | 0.3 | 83.7 | 5.34 | 1500
4 | B4 | 0.335 | 126 | 0.142 | 95.3 | 5.8 | 2820
5 | B5 | 1.32 | 234 | 0.474 | 62.8 | 2.42 | 1500
6 | B6 | 2.58 | 328 | 0.274 | 55.3 | 6.87 | 1170
7 | B7 | 1.3 | 462 | 0.544 | 91.1 | 10.3 | 2040
8 | B8 | 1.61 | 473 | 0.312 | 63.3 | 3.04 | 1400
9 | B9 | 0.649 | – | 0.0814 | – | 16.2 | –
10 | B10 | 0.426 | – | 0.0342 | – | 15.3 | –
11 | B11 | 0.426 | – | 0.0303 | – | 7.29 | –
12 | B12 | 1.02 | – | 0.112 | – | 10.7 | –
13 | B13 | 4.4 | 1060 | 0.164 | 20.7 | 5.74 | 1410
14 | B14 | 0.394 | 135 | 0.264 | 89.3 | 5.41 | 2620
